± gives the standard deviation of the averaged measurements.
Test: total protein half-life in vivo (active degradation + dilution); higher = more stable protein
[1] = E. coli NCM3722 delta-clpP delta-lon delta-hslV, growth: N-lim chemostat, doubling time 6 h
[2] = E. coli NCM3722 delta-clpP, growth: N-lim chemostat, doubling time 6 h
[3] = E. coli NCM3722 delta-hslV, growth: N-lim chemostat, doubling time 6 h
[4] = E. coli NCM3722 delta-smpB, growth: N-lim chemostat, doubling time 6 h
[5] = wild type E. coli NCM3722, growth: C-lim chemostat, doubling time 3 h
[6] = wild type E. coli NCM3722, growth: C-lim chemostat, doubling time 12 h
[7] = wild type E. coli NCM3722, growth: N-lim chemostat, doubling time 6 h
[8] = wild type E. coli NCM3722, growth: N-lim chemostat, doubling time 12 h
[9] = wild type E. coli NCM3722, growth: P-lim chemostat, doubling time 6 h
[10] = wild type E. coli NCM3722, growth: C-lim chemostat, doubling time 6 h
[11] = wild type E. coli NCM3722, growth: P-lim chemostat, doubling time 12 h
[12] = E. coli NCM3722 delta-lon, growth: N-lim chemostat, doubling time 6 h

Sequence	total protein half-life in vivo [1]	total protein half-life in vivo [2]	total protein half-life in vivo [3]	total protein half-life in vivo [4]	total protein half-life in vivo [5]	total protein half-life in vivo [6]	total protein half-life in vivo [7]	total protein half-life in vivo [8]	total protein half-life in vivo [9]	total protein half-life in vivo [10]	total protein half-life in vivo [11]	total protein half-life in vivo [12]
MTNYRVESSSGRAARKMRLALMGPAFIAAIGYIDPGNFATNIQAGASFGYQLLWVVVWANLMAMLIQILSAKLGIATGKNLAEQIRDHYPRPVVWFYWVQAEIIAMATDLAEFIGAAIGFKLILGVSLLQGAVLTGIATFLILMLQRRGQKPLEKVIGGLLLFVAAAYIVELIFSQPNLAQLGKGMVIPSLPTSEAVFLAAGVLGATIMPHVIYLHSSLTQHLHGGSRQQRYSATKWDVAIAMTIAGFVNLAMMATAAAAFHFSGHTGVADLDEAYLTLQPLLSHAAATVFGLSLVAAGLSSTVVGTLAGQVVMQGFIRFHIPLWVRRTVTMLPSFIVILMGLDPTRILVMSQVLLSFGIALALVPLLIFTSDSKLMGDLVNSKRVKQTGWVIVVLVVALNIWLLVGTALGL [P0A769]	2.46 h	3.02 h	2.87 h	2.15 ± 0.48 h	1.29 h	3.66 h	2.23 ± 1.2 h	3.65 ± 1.2 h	2.19 h	–	–	–
MTPLVKDIIMSSTRMPALFLGHGSPMNVLEDNLYTRSWQKLGMTLPRPQAIVVVSAHWFTRGTGVTAMETPPTIHDFGGFPQALYDTHYPAPGSPALAQRLVELLAPIPVTLDKEAWGFDHGSWGVLIKMYPDADIPMVQLSIDSSKPAAWHFEMGRKLAALRDEGIMLVASGNVVHNLRTVKWHGDSSPYPWATSFNEYVKANLTWQGPVEQHPLVNYLDHEGGTLSNPTPEHYLPLLYVLGAWDGQEPITIPVEGIEMGSLSMLSVQIG	–	3.18 h	–	–	2.85 h	11.3 h	3.76 h	–	5.45 h	5.76 h	10.5 ± 0.65 h	–
MTPWFLYLIRTADNKLYTGITTDVERRYQQHQSGKGAKALRGKGELTLVFSAPVGDRSLALRAEYRVKQLTKRQKERLVAEGAGFAELLSSLQTPEIKSD	6.282 ± 0.0083 h	–	–	–	–	–	–	–	1.75 h	–	–	–
MTQANLSETLFKPRFKHPETSTLVRRFNHGAQPPVQSALDGKTIPHWYRMINRLMWIWRGIDPREILDVQARIVMSDAERTDDDLYDTVIGYRGGNWIYEWATQAMVWQQKACAEDDPQLSGRHWLHAATLYNIAAYPHLKGDDLAEQAQALSNRAYEEAAQRLPGTMRQMEFTVPGGAPITGFLHMPKGDGPFPTVLMCGGLDAMQTDYYSLYERYFAPRGIAMLTIDMPSVGFSSKWKLTQDSSLLHQHVLKALPNVPWVDHTRVAAFGFRFGANVAVRLAYLESPRLKAVACLGPVVHTLLSDFKCQQQVPEMYLDVLASRLGMHDASDEALRVELNRYSLKVQGLLGRRCPTPMLSGYWKNDPFSPEEDSRLITSSSADGKLLEIPFNPVYRNFDKGLQEITDWIEKRLC	5.5 ± 0.92 h	5.97 ± 1.6 h	3.64 ± 0.2 h	3.78 ± 0.053 h	2.32 ± 0.07 h	4.98 ± 0.59 h	3.52 ± 0.098 h	5.5 ± 0.077 h	4.41 ± 0.33 h	3.76 ± 0.11 h	7.49 ± 0.46 h	3.85 ± 0.3 h
MTQDELKKAVGWAALQYVQPGTIVGVGTGSTAAHFIDALGTMKGQIEGAVSSSDASTEKLKSLGIHVFDLNEVDSLGIYVDGADEINGHMQMIKGGGAALTREKIIASVAEKFICIADASKQVDILGKFPLPVEVIPMARSAVARQLVKLGGRPEYRQGVVTDNGNVILDVHGMEILDPIAMENAINAIPGVVTVGLFANRGADVALIGTPDGVKTIVK [P0A7Z0]	4.63 ± 0.6 h	3.964 ± 0.033 h	4.16 ± 0.58 h	4.21 ± 0.072 h	2.89 ± 0.12 h	9.4966 ± 0.0081 h	4.01 ± 0.3 h	6.79 ± 0.038 h	5.1 ± 0.3 h	5.36 ± 0.4 h	11.6 ± 0.7 h	4.46 ± 0.19 h

From the supplement of paper PMC11246515
